The text below walks through data of patent US20180282808A1 (ADAPTIVE BIOTECHNOLOGIES, published 2018).

Assay [1] addresses T1, WT1 (Wilms' tumor antigen-1) peptide on HLA-A*02:01 (human).
T1 peptide: YMLDLQPETT
The assay is described as follows: full-length, on cells.

For assay [2], the target named is WT1 peptide (…; SEQ ID NO: 97) presented on peptide-pulsed T2 cells (UniProt P61769). In words: cell-based or functional assay. The settings on record: scale: nM.
Assay [3] deals with WT1 peptide (…; SEQ ID NO: 97) presented on peptide-pulsed T2 cells (UniProt P61769 21-119, limits assumed). In words: cell-based or functional assay.

B1: eJH64_WT1C_6 (TCR, V domains shown)
Valpha: AQSVAQPEDQVNVAEGNPLTVKCTYSVSGNPYLFWYVQYPNRGLQFLLKYITGDNLVKGSYGFEAEFNKSQTSFHLKKPSALVSDSALYFCAVRDMRYGGATNKLIFGTGTLLAVQP
Vbeta: ETGVTQTPRHLVMGMTNKKSLKCEQHLGHNAMYWYKQSAKKPLELMFVYSLEERVENNSVPSRFSPECPNSSHLFLHLHTLQPEDSALYLCASSQDGLAGAASFNNEQFFGPGTRLTVL
B1: in assay [1], the EC50 of peptide was 0.7 nM. Also, the EC50 of functional avidity: CD69 MFI of TCR+ cells against WT1 10mer peptide concentration pulsed on T2 cells in assay [2] amounted to 0.7.

B2: eJH30_WT1C_5 (TCR, V domains shown)
V domain 1: GENVEQHPSTLSVQEGDSAVIKCTYSDSASNYFPWYKQELGKGPQLIIDIRSNVGEKKDQRIAVTLNKTAKHFSLHITETQPEDSAVYFCAAGGRDDKIIFGKGTRLHILP
V domain 2: EPEVTQTPSHQVTQMGQEVILRCVPISNHLYFYWYRQILGQKVEFLVSFYNNEISEKSEIFDDQFSVERPDGSNFTLKIRSTKLEDSAMYFCASSERLGTMAYNSPLHFGNGTRLTVTE
For the molecule B2, the “EC50 (nM) of functional avidity: CD69 MFI of TCR+ JRT3 cells against WT1-pep concentration pulsed on T2 cells” value in assay [3] was 51.9 nM.

B3: eJH30_WT1C_8 (TCR, V domains shown)
V domain 1: GQQLNQSPQSMFIQEGEDVSMNCTSSSIFNTWLWYKQEPGEGPVLLIALYKAGELTSNGRLTAQFGITRKDSFLNISASIPSDVGIYFCAGRGSQGNLIFGKGTKLSVKP
V domain 2: DTAVSQTPKYLVTQMGNDKSIKCEQNLGHDTMYWYKQDSKKFLKIMFSYNNKELIINETVPNRFSPKSPDKAHLNLHINSLELGDSAVYFCASSHWQETQYFGPGTRLLVLE
Take B3: the “EC50 (nM) of functional avidity: CD69 MFI of TCR+ JRT3 cells against WT1-pep concentration pulsed on T2 cells” value in assay [3] was determined as 10.9 nM.
